The record followed here is article PMC9666628 (Nature Communications, 2022).

Changes are numbered by the printed parent chain.

What is called Kd is the equilibrium constant for the complex coming apart. By stoichiometry N is commonly meant the number of molecules, sites or subunits per partner or assembly.

What all share (settings): both partners purified
Experiment [1] concerns the target T1, Cbx7.V1 (tags removed, used for FP and ITC) (human, UniProt O95931 7-66, E8D (printed as the back-mutation D8E) | Q9D | V10I (printed as the …)).
T1 construct: chromodomain of human Cbx7 (Cbx7-chromo), UniProt O95931; source: E. coli BL21(DE3), purified (Ni-NTA; tags removed with TEV protease)
T1 sequence: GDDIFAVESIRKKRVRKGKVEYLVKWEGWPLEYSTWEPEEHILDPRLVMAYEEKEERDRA
Description: ITC; peptides (1.2-2 mM, syringe) titrated into Cbx7.V1 (70-112 µM, cell); 25 °C; PBS pH 7.4, 1 mM TCEP; one-site binding model. (In general: Isothermal titration calorimetry measures the heat released or taken up as one component is titrated into another.)

Experiment [2] has as its target T2, Cbx7.V1 (His6- and Flag-tagged construct, used for BLI) (human, UniProt O95931 7-66, E8D (printed as the back-mutation D8E) | Q9D | V10I (printed as the …)).
T2 construct: chromodomain of human Cbx7 (Cbx7-chromo), UniProt O95931; removal of the tags is told only for FP and ITC; source: E. coli BL21(DE3), purified (Ni-NTA)
T2 sequence: T1 sequence
Description: BLI; biotinylated peptides immobilised on streptavidin biosensor tips (Octet HTX); chromodomains in solution at 5 or 1 µM; 25 °C; 25 mM HEPES pH 7.0, 150 mM NaCl, 1 mg/ml BSA, 0.01% Tween-20; steady-state fit, Langmuir model. (BLI is a label-free optical method that tracks binding on a fibre tip over time.)

A further experiment concerns the target T3, Cbx7.V1 D8E back-mutant (human, UniProt O95931 7-66, Q9D | V10I (printed as the back-mutation I10V) | K33E | P37L (printed as the …)).
T3 construct: chromodomain of human Cbx7, UniProt O95931; Cbx7.V1 with residue 8 back to the wild type; source: E. coli BL21(DE3), purified (Ni-NTA)
T3 sequence: T1 sequence with D2E
The experiment is described as above.

In the next experiment the target is T4, Cbx7.V1 D9Q back-mutant (human, UniProt O95931 7-66, E8D (printed as the back-mutation D8E) | V10I (printed as the back-mutation …)).
T4 construct: chromodomain of human Cbx7, UniProt O95931; Cbx7.V1 with residue 9 back to the wild type; source: E. coli BL21(DE3), purified (Ni-NTA)
T4 sequence: T1 sequence with D3Q
The experiment is described as above.

A further experiment has as its target T5, Cbx7.V1 I10V back-mutant (human, UniProt O95931 7-66, E8D (printed as the back-mutation D8E) | Q9D | K33E | P37L (printed as the …)).
T5 construct: chromodomain of human Cbx7, UniProt O95931; Cbx7.V1 with residue 10 back to the wild type; source: E. coli BL21(DE3), purified (Ni-NTA)
T5 sequence: T1 sequence with I4V
The experiment is described as above.

A further experiment deals with T6, Cbx7.V1 E33K back-mutant (human, UniProt O95931 7-66, E8D (printed as the back-mutation D8E) | Q9D | V10I (printed as the …)).
T6 construct: chromodomain of human Cbx7, UniProt O95931; Cbx7.V1 with residue 33 back to the wild type; source: E. coli BL21(DE3), purified (Ni-NTA)
T6 sequence: T1 sequence with E27K
The description is as above.

For a further experiment, the target named is T7, Cbx7.V1 L37P back-mutant (human, UniProt O95931 7-66, E8D (printed as the back-mutation D8E) | Q9D | V10I (printed as the …)).
T7 construct: chromodomain of human Cbx7, UniProt O95931; Cbx7.V1 with residue 37 back to the wild type; source: E. coli BL21(DE3), purified (Ni-NTA)
T7 sequence: T1 sequence with L31P
The description is as above.

The target of another experiment is T8, Cbx7.V1 E38K back-mutant (human, UniProt O95931 7-66, E8D (printed as the back-mutation D8E) | Q9D | V10I (printed as the …)).
T8 construct: chromodomain of human Cbx7, UniProt O95931; Cbx7.V1 with residue 38 back to the wild type; source: E. coli BL21(DE3), purified (Ni-NTA)
T8 sequence: T1 sequence with E32K
The experiment is described as above.

The target in the next experiment is T9, Cbx7.V1 (human, UniProt O95931 7-66, E8D (back-mutant printed as D8E) | Q9D (back-mutant printed as D9Q) | V10I …).
T9 construct: also called Cbx7.5; source: E. coli BL21(DE3), purified (Ni-NTA); tags removed with TEV protease
T9 sequence: T1 sequence
Description: fluorescence polarisation; 0.5 nM FITC-labeled peptide, chromodomain serially diluted (wild type 200-0.2 µM; Cbx7.V1 50 µM-50 nM); 25 mM HEPES pH 7.5, 150 mM NaCl, 1 mM DTT, 0.01% TritonX-100; 30 min at 25 °C; one-site total binding model. For orientation: Polarisation of emitted light reports the rotation of a fluorescent probe.

For a further experiment, the target named is T10, Cbx7 Q9D (human, UniProt O95931 7-66, Q9D).
T10 construct: chromodomain of human Cbx7 (UniProt O95931) with Q9D; source: E. coli BL21(DE3), purified (Ni-NTA); tags removed with TEV protease
T10 sequence: T1 sequence with D2E, I4V, E27K, L31P, E32K
The experiment is described as above.

The target in the next experiment is T11, Cbx7 K33E (human, UniProt O95931 7-66, K33E).
T11 construct: chromodomain of human Cbx7 (UniProt O95931) with K33E; source: E. coli BL21(DE3), purified (Ni-NTA); tags removed with TEV protease
T11 sequence: T1 sequence with D2E, D3Q, I4V, L31P, E32K
The experiment is described as above.

B1: H3K9me3 peptide, N-terminal biotin (peptide)
chain: ARTKQTARKSTGGKAPR
modifications: trimethyl-lysine at K9; biotin followed by an aminohexanoic acid linker at the N-terminus
On to B1, for which the dissociation constant Kd in experiment [1] is 7 µM; in experiment [2], 4.5 µM; with Cbx7.V1 D8E back-mutant it was 5 µM; with Cbx7.V1 D9Q back-mutant, over 20 µM; with Cbx7.V1 I10V back-mutant, 3.5 µM; in the experiment with Cbx7.V1 E33K back-mutant it was 10 µM. Besides, the equilibrium dissociation constant (Kd) with Cbx7.V1 L37P back-mutant is 3 µM; with Cbx7.V1 E38K back-mutant, 2 µM. For the same molecule, the “stoichiometry N” value in [1] is about 1.

B2: FITC-labeled H3K9me3 peptide (peptide)
peptide: ARTKQTARKSTGGKAPR
modifications: trimethyl-lysine at K9 (Kme3); fluorescein isothiocyanate (FITC) on the N-terminus
notes: histone H3 N-terminal tail, residues 1-17; source: synthetic peptide (GenScript)
B2: the Kd with Cbx7.V1 came out at 7.2 µM; in the experiment with Cbx7 Q9D, 12.3 µM; with Cbx7 K33E, 18 µM.

B3: FITC-labeled H3K27me3 peptide (peptide)
peptide: KQLATKAARKSAPATGGVK
modifications: trimethyl-lysine at K27 (Kme3); fluorescein isothiocyanate (FITC) on the N-terminus
notes: histone H3 tail, residues 18-36; source: synthetic peptide (GenScript)
As for B3, the results for the Kd in the experiment with Cbx7.V1, with Cbx7 Q9D and with Cbx7 K33E were 4.2 µM, 97 µM and 17.5 µM, respectively.

B4: H3K27me3 peptide, N-terminal biotin (peptide)
chain: KQLATKAARKSAPATGGVK
modifications: trimethyl-lysine at K27; biotin followed by an aminohexanoic acid linker at the N-terminus
As for B4, the Kd was 7.8 µM in [1]; 2 µM in [2]; 2 µM in the experiment with Cbx7.V1 D8E back-mutant; 2 µM in the experiment with Cbx7.V1 D9Q back-mutant; 2 µM with Cbx7.V1 I10V back-mutant; over 20 µM with Cbx7.V1 E33K back-mutant. Also, the results for the dissociation constant Kd in the experiment with Cbx7.V1 L37P back-mutant and in the experiment with Cbx7.V1 E38K back-mutant were 2.5 µM and 1.5 µM, respectively. The “stoichiometry N” value in experiment [1] was about 1.
